This passage reports Kd results from paper PMC10866396 (Molecular cancer therapeutics, 2023).

The target of this assay is Avi-tagged-eIF4E (human, UniProt P06730 1-217, biotin (co-transfected bacterial biotin ligase BirA; loaded on streptavidin tips)). Kind of assay: BLI.
Sequence of Avi-tagged-eIF4E (P06730 whole entry): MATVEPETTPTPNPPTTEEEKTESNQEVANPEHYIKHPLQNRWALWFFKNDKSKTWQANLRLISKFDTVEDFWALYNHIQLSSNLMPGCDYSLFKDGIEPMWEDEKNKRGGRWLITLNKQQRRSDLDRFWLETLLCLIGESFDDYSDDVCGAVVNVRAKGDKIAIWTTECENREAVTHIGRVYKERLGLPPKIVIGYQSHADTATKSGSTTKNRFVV

B1: Pep8 peptide (peptide)
peptide: YPYAASPA
A word on the Kd: it is the free concentration of one partner at which half of the binding sites on the other are occupied at equilibrium, for simple one-to-one binding. Low readings indicate a tighter complex, high ones a looser complex. The molecule B1 returned a Kd of 25 µM.
